Results on two substances are retold here after patent US20050221391A1, “Reagents and methods for identification of binding agents” (priority 2000, published 2005).

“Also recorded” adds a separate entry of the source.

The target in assay [1] is tau231P (tau peptide phosphorylated at threonine 231) (Homo sapiens, UniProt P10636). The assay can be described thus: ELISA binding to immobilized biotinylated tau231P phosphopeptide. Particulars: synthetic phosphopeptide. How it is done:
To identify compounds which bind to tau peptides phosphorylated on threonine 231, a 96 well or […] ELISA plate is coated with Neuravidin in 20 mM K2HPO4/10 mM KH2PO4, 1 mM EDTA, 0.8% NaCl, 0.01% NAN3, pH 7.2, using a protein concentration of 5 micrograms per ml. All volumes in ELISA plates are 50 microliters, except for storage, where 200 microliters is added. After coating, plates are incubated with 10 mM tris base, 150 mM NaCl, pH 7.4 CIBS) containing 2% bovine serum albumin (BSA) and stored at 4 °C. Plates prepared this way are stable for several weeks.
A peptide derived from the protein tau was utilized, as shown below: • Biotin-KKVAVR(phospho)TPPKSPSS (SEQ D NO. 1) The peptide was diluted to a concentration of 0.5 micromolar in TBS containing 2% BSA, and 50 microliters per well were added followed by incubation at room temperature for one hour. Unbound peptide is washed off with TBS containing 0.5% Tween 20. […] Bound antibody is detected by incubation with a solution of goat anti-mouse Ig or goat anti-rabbit Ig coupled to horse radish peroxidase (HRP) (2 micrograms per ml in TBS containing 1% BSA) for one hour, and excess antibody is removed by washing with TBS containing 0.05% Tween 20. HRP activity is determined by addition of a substrate capable of generating a colored or fluorescent product (i.e., ABTS Substrate solution (BioRad Laboratories, Hercules, Calif.)). […]
In general terms: In an ELISA, binding on a coated surface is turned into a signal by an enzyme label.

Assay [2] concerns the target APP668P (APP peptide phosphorylated at threonine 668) (Homo sapiens, UniProt P05067). The assay can be described thus: ELISA binding to immobilized biotinylated APP668P phosphopeptide. Particulars: synthetic phosphopeptide. The source says: It is also possible to practice the method described above using a phosphopeptide corresponding to the sequence of APP. The sequence of one such peptide is shown below: • Biotin-VEVDAAV(phospho)TPEERHLS (SEQ ID NO. 2) In place of the TG3 antibody, a mAb specific for the phosphothreonine 668 of APP is used. The same antibody detection reagents and methods are used as described above. Examples of antibodies useful in this regard include but are not limited to GF1, GF3, GF5, GF7, GF12, GF25, and GF31. Polyclonal antibodies reactive against substantially similar phosphopeptides may also be useful.
Assays have been established in which the tau and APP phosphopeptides are biotinylated and immobilized on Neutravidin-coated 96 well ELISA plates. […] Concentrations of GF31 in the 5 nM range give a robust signal on such plates, and the binding is very sensitive to the presence of an antibody, TG3, which has a high affinity for the tau peptide (FIG. 5B). Duplicate assays are shown in FIG. 5B, illustrating the reproducibility of the assay.

Assay [3] deals with non-phosphorylated tau and APP peptides. The assay can be described thus: Binding to the respective non-phosphorylated tau and APP peptides.
The target of assay [4] is tau peptide incorporating the phosphorylated threonine 231 site (tau231P), Biotin-KKVAVVR(phospho)TPPKSPSS
Put plainly: estimated from other studies, method not described.

“Pin1: prolyl isomerase which binds phosphorylated serine/threonine-proline bonds in proteins”: in assay [1], the “binding / recognition of tau231P phosphopeptide” value is “high affinity; also recorded: binds”. For the same substance, in assay [2], the “binding / recognition of APP668P phosphopeptide” value is recorded as “high affinity; also recorded: binds”. In assay [3], the “binding to the respective non-phosphorylated peptides” value is given as “does not bind”.

In the case of monoclonal antibody TG3, the Kd in assay [4] is 25 nM.

As usually defined, the Kd is the free concentration of one partner at which half of the binding sites on the other are occupied at equilibrium, for simple one-to-one binding.
